Results: JP2015180231A

Biological target: RSV融合(F)タンパク質 (RSV fusion (F) protein), on RSV-infected HEp2 cells (respiratory syncytial virus (RSV)) (UniProt P03420)
Experiment: cell-based or functional assay

UniProt P03420, sequence (P03420 26-574): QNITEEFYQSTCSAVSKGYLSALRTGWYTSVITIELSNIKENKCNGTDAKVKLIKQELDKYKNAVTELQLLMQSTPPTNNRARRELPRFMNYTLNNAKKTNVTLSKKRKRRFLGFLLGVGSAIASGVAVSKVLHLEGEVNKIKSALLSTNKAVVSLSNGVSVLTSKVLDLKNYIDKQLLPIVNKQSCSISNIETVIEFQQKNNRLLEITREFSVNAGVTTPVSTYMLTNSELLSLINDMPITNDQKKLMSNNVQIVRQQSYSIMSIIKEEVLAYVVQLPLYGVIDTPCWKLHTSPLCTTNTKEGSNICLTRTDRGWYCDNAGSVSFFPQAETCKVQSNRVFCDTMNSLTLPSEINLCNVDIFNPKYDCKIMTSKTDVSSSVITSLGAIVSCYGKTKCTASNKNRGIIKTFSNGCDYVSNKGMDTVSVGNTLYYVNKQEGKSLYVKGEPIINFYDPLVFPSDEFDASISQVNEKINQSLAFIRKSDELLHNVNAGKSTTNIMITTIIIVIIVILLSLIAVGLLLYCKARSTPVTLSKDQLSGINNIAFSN

Substance: 抗RSV抗体D25 (anti-RSV monoclonal antibody D25)
- RSV-A2ウイルスに対して最大活性の半分を阻害する濃度(IC50) (microneutralisation): 2.1 ng/mL
